Source: patent US12404346B2, “Anti-naloxone and anti-naltrexone monoclonal antibodies and methods of production and use thereof” (Siemens Healthcare Diagnostics Inc., priority 2019, dated 2025)

B1: 179B 9E12: anti-naloxone monoclonal antibody generated using naloxone-3-Val-mcKLH; heavy chain SEQ ID NO:181, light chain SEQ ID NO:185 (antibody, V domains shown)
VH: MGWSWIFLFLLSGTAGVHCQIQLQQSGPELVKPGASVKISCKASDYSFTNSYINWVKQRPGQGLEWIGWIYPGSTNTKYNEKFWDKATLTVDTSSNTAYMELRGLTSEDSAVYFCEMGTHYSYDVMDWGQGTSVTVSS
VL: MEFQTQVFVFVLLWLSGVDGDIVMTPSQKFMSTSVGDRVSITCKASQNVRTSVGWYQQKPGQSPKPLIYATSNRHTGVPDRFTGSGSGTDFSLTITNVQSEDQADYFCLQHWNYPWTFGGGTKLEIK
modifications: Amino acid sequence of heavy chain of monoclonal antibody 179B 9E12; Amino acid sequence of light chain of monoclonal antibody 179B 9E12
B2: 179B 9G1.1: anti-naloxone monoclonal antibody generated using naloxone-3-Val-mcKLH; heavy chain SEQ ID NO:161, light chain SEQ ID NO:165 (antibody)
heavy: MEWPCIFLFLLSVTEGVHSQVQLQQSGPELVKPGASVMISCKVFGDIFSSSWMNWVKQRPGKGLEWIGWICPGNGATKYNGKFKGKATLTADKSSGTGYMQLSSLTSEDSAVYFCELGRRDGYLDVWAGTTVTVSS
light: MESQTQVFVYMLLWLSGVDGDIVMTQSQKFIFTSEGDRVSVTCKASQNVGTNIAWYQQKPGQSPKALIYSASNRYSGVPDRFTGSGSGTDFTLTFSNVQSEDLAEYFCLQYNNYPWTFGGGTKLEIK
modifications: Amino acid sequence of heavy chain of monoclonal antibody 179B 9G1.1; Amino acid sequence of light chain of monoclonal antibody 179B 9G1.1
B3: 180C 9G8: anti-naltrexone monoclonal antibody generated using naltrexone-3-Val-mcKLH; heavy chain SEQ ID NO:141, light chain SEQ ID NO:145 (antibody, V domains shown)
VH: MYLGLNCVIIVFLLKGVQSEVKLEESGGGLVQPGGSMKLSCAASGFTFSDAWMDWVRQSPEKGLEWVAEIRNKANNHATYYAESVKGRFTISRDDSNSRMFLQMDSLRAEDTGIYYCIGGIPRYFDVGAGTTVTVSS
VL: MESQTQVFVYMLLWLSGVDGDIVMTQSQKFMSTSVGDRVSITCKASQNVRTYVAWYQQKPGQSPKALLYSASYRYSGVPDRFIGSGSGTQFTLTISDVQSEDLAEYFCHQYNSYPLTFGGGTKLEIQ
modifications: Amino acid sequence of heavy chain of monoclonal antibody 180C 9G8; Amino acid sequence of light chain of monoclonal antibody 180C 9G8
B4: 180C 1F8: anti-naltrexone monoclonal antibody generated using naltrexone-3-Val-mcKLH; heavy chain SEQ ID NO:61, light chain SEQ ID NO:65 (antibody)
heavy: MEWSWIFLFFLSVTTGVHSQVQLQQSDAELVKPGTSVKISCKASGFTFTDHAIHWVKQRPEQGLEWIGYISPGNGDIKYNEKFKGKATLTADKSSSTAYMQLNSLTSEDSAVYFCDYYNGRVDYWGQTTLTVSS
light: MEFHTQVFVFVFLWLSGVDGDIVMTQSQKFMTTSVGDRVSITCKASQNVGSAVAWYQQKPGQSPKLLIYSASNRFTGVPDRFTGSGSRTDFTLTISNMQSDDLADYFCHQYRSYPYTFGGGTKLEIK
modifications: Amino Acid sequence of heavy chain of monoclonal antibody 180C 1F8; Amino Acid sequence of light chain of monoclonal antibody 180C 1F8
B5: 180C 8A10: anti-naltrexone monoclonal antibody generated using naltrexone-3-Val-mcKLH; heavy chain SEQ ID NO:101, light chain SEQ ID NO:105 (antibody)
heavy: MGWSYIFLFLVATVTDVHSQVQLQQPGAELVKPGASVKLSCKASGYTFTNYWINWVKQRPGQGLEWLGEINPSNSNTKYNEKFKSRATLTADKSSSTAYMQLHSLTSEDSAVYYCNYYDGGHDSWGQTTLTVSS
light: MEFHTQVFVFVFLWLSGVDGDIVMTQSQKFMSTTLGDRVSIICKASQNVGTAVAWYQQKPGQSPKLLIYSTSNRYTGVPDRFTGSGSGTDFSLTISSVQSEDLADYFCHQYSSYLYTFGGGTRLEIK
modifications: Amino acid sequence of heavy chain of monoclonal antibody 180C 8A10; Amino acid sequence of light chain of monoclonal antibody 180C 8A10
B6: 180C 7G8: anti-naltrexone monoclonal antibody generated using naltrexone-3-Val-mcKLH; heavy chain SEQ ID NO:81, light chain SEQ ID NO:85 (antibody, V domains shown)
VH: MYLGLNCVIIVFLLKGVQSEVKLEESGGGLVQPGGSVKLSCAVFGFTFSDPWMDWVRQSPEKGLEWVAEIRNKAYNHATYYAESVKGRFTISRDDSNSRVSLQMNNLRAEDTGVYYCTAGDSSHSYWQGTLVTVSA
VL: MEFQTQVFVFVLLWLSGVDGDIVMTQSQKFMSTSVGDRVSIICKASQNVRTAVAWYQQKPGQSPKTLIYLASNRHTGVPDRFTGSGSGTDFTLTISNVQAEDLADYFCLQHWNYPLTFGGGTKLEIK
modifications: Amino acid sequence of heavy chain of monoclonal antibody 180C 7G8; Amino acid sequence of light chain of monoclonal antibody 180C 7G8
B7: 180C 9D5: anti-naltrexone monoclonal antibody generated using naltrexone-3-Val-mcKLH; heavy chain SEQ ID NO:121, light chain SEQ ID NO:125 (antibody)
heavy: MGWNYIFLFLIATVTDVHSQVRLQQPGTDLVKPGASVKLSCRASGFTFTNYWMNWVKQRPGQGLEWIGEINTNGGTKYNENFKNKATLTVDQSSSTAYIQLSGLTSEDSAVYFCNYFDGNYDYWGQGTLTVSS
light: MEFHTQVFVFVFLWLSGVDGDIVMTQSQKFMSTPVGDRVSLTCRASQNVGTAVAWYQQKPGQPPKLLIYSTSNRFTGVPSRFTGSGSGTDFTLTITNMQSEDLADYFCHQYSSYPYTFGGGTKLEIK
modifications: Amino acid sequence for heavy chain of monoclonal antibody 180C 9D5; Amino acid sequence for light chain of monoclonal antibody 180C 9D5
B8: 180B 13F7: anti-naltrexone monoclonal antibody generated using naltrexone-3-Val-mcKLH; heavy chain SEQ ID NO:41, light chain SEQ ID NO:45 (antibody)
heavy: MRVLILVYLLTALPGILSDIQLQESGPGLVKPSQTVSLTCTVTGYSITYVNHWWNWIRQVSGNKLEWIGYISSSGSIDSNPSLKSRIAITRDTSKNQLFLQLKSVTTEDVGTYYCVSEDSSGYHYWGGTTLTVSS
light: MKLPVRLLVLMFWIPASSSDVVMTQTPLSLPVSLGDQASISCRSSQSLVFSNGKTYFHWYLQKPGQSPKLLIYRVSNRFSGVPDRFSGSGSGTDFTLKISRVEAEDLGVYFCSQSTHVPWTFGGGTKLEIK
modifications: Amino Acid sequence of heavy chain of monoclonal antibody 180B 13F7; Amino Acid sequence of light chain of monoclonal antibody 180B 13F7

Experiment: inhibition ELISA, anti-naloxone monoclonal antibodies against key opioids (FIG. 7)
Format: binding
Details: free drug 20 μg/mL, plates coated with ovalbumin conjugate
From the text: (§1) Mice with good anti-drug antibody titers and binding to free drug in the ELISA inhibition assays were selected to proceed with generation of monoclonal antibodies, in a similar manner to that described in U.S. Pat. No. 9,815,907 (issued to Sharma et al. on Nov. 14, 2017). In particular, mice with highest titers and best specificity were boosted three days prior to fusion. On the day of fusion, spleen cells were harvested from these mice and were fused with myeloma cell line P3X63Ag8.653 using PEG-assisted fusion protocols. After about ten days, hybridoma supernatants were screened for anti-naloxone and anti-naltrexone antibodies using a plate ELISA (direct binding and inhibition ELISA for specificity). Positive clones were further expanded and sub-cloned, and supernatants were purified using a Protein A SEPHAROSE® (GE Healthcare, Chicago, IL) column. Purified antibody samples were tested using ELISA for binding to the immunogen (i.e., a conjugate of drug-carrier protein) and to free opioids.
(§2) Antibody solution (Immune mouse bleeds or hybridoma clones supernatant or purified antibody) was screened using an inhibition ELISA procedure according to the following protocol. […] Plate coating was performed for 1 hour or more at room temperature or overnight at about 2° C. to 8° C. The plates were then flicked dry and blocked with 200 μL per well of blocking buffer solution (0.5% Casein solution in PBS containing 0.05% TWEEN® 20 surfactant (Croda International PLC, Snaith, United Kingdom). Plate blocking was performed by incubation for 30 minutes or more at room temperature with plate shaking. The plates were washed using a plate washer (BioTek®, Winooski, VT) with plate stacker with the washing buffer being MILLIQ® water (Millipore Corporation, Billerica, MA) containing 0.05% TWEEN® 20. The monoclonal antibody to be screened was then added to each well along with free drug as follows: 25 μL per well of appropriately diluted culture supernatant (or antibody solution) and added 25 μL of 20 μg/mL of free drug. Incubation was performed for about 1 hour at room temperature with plate shaking. The plate was washed. An enzyme conjugate (goat anti-mouse IgG coupled to HRP diluted in blocking buffer diluted to 1:3000) was added at 50 μL per well. Incubation was performed for about 1 hour at room temperature with shaking. The plate was then washed, and a chromogenic solution (TMB from Moss Substrates, Pasadena MD) was added at a volume of 100 μL per well. If a desired antibody was present in the hybridoma supernatant, then a decrease in optical density was observed compared to the well containing no free drug. The plates were read at 650 nm wavelength using an ELISA plate reader (Molecular Devices, San Jose, CA). Note: appropriate dilution of antibody solution was determined by performing a titration ELISA. The antibody dilution was chosen where around 1.0 optical density was observed.

Row | Molecule | specificity for naloxone over the other key opioids tested in the inhibition ELISA assay
1 | B1 | good specificity for naloxone
2 | B2 | good specificity for naloxone

Experiment: inhibition ELISA, anti-naltrexone monoclonal antibodies against key opioids (FIG. 8)
Format: binding
Details: free drug 20 μg/mL, plates coated with ovalbumin conjugate
From the text: as §1, §2

Row | Molecule | specificity for naltrexone over the other key opioids tested in the inhibition ELISA assay
3 | B3 | good specificity for naltrexone
4 | B4 | good specificity for naltrexone
5 | B5 | good specificity for naltrexone
6 | B6 | good specificity for naltrexone
7 | B7 | good specificity for naltrexone
8 | B8 | good specificity for naltrexone
